Tests used:
[1] = target: c-Met protein receptors on HUVEC (human, UniProt P08581 25-1390); assay: cell-based or functional assay
[2] = target: T1, human c-Met (Sino Biological) (human, UniProt P08581 25-932, limits assumed); assay: derived from the Biacore KD, normalised to VH0/Vk0
T1 construct: Analyte in the Biacore assay; also called antigen (c-Met); printed as "human c-Met antibody (Sino Biological, Beijing, China)"
Method: (§1) The candidate antibodies selected in Example 4 were measured for binding affinity for the antigen (c-Met) with the aid of Biacore. […] The anti-c-Met antibodies to be analyzed were immobilized on Protein A CM5 chips (GE Healthcare, Little Chalfont, UK) through which human c-Met antibody (Sino Biological, Beijing, China) with various concentrations ranging 0.15 to 2 nM was allowed to pass, thereby acquiring sensorgrams. On the basis of the acquired sensorgrams, association constants kₒₙ and dissociation constants koff were measured to calculate Ko value, the ratio koff/kₒₙ.
(§2) In order to select a final candidate group from the 21 candidate antibodies selected in Example 4, comparison was made according to criteria specified into expression level, binding affinity for antigen, thermal stability, and biopotency. As a rule, the expression level is considered to be the most important index when time and cost are taken into consideration from a point of view of production. […] Thereafter, degrees of improvement in each of the remaining candidate antibodies compared to the reference antibody (VH0/Vk0) were digitized with regard to the selected indices. For normalization, analysis index measurements for individual candidate antibodies were divided by average values to give ratios (index 1) which were in turn divided by the measurement for the antibody VH0/Vk0 (index 2) (Tables 6 to 9). In addition, the measurements for the four indices were multiplied for comprehensive comparison of the four indices of the candidate antibodies. The final results (index 3) are listed in a descending order in Table 10.

[3] = target: T1, human c-Met (Sino Biological); assay: derived from the Biacore KD, printed 'Average' 3.52 x10^-10 M divided by the KD
Method: as §1, §2

[4] = target: T1, human c-Met (Sino Biological); assay: SPR (Biacore T200), IgG captured on Protein A CM5 chip, c-Met 0.15-2 nM as analyte
Method: as §1

T1 sequence (P08581 25-932 limits assumed): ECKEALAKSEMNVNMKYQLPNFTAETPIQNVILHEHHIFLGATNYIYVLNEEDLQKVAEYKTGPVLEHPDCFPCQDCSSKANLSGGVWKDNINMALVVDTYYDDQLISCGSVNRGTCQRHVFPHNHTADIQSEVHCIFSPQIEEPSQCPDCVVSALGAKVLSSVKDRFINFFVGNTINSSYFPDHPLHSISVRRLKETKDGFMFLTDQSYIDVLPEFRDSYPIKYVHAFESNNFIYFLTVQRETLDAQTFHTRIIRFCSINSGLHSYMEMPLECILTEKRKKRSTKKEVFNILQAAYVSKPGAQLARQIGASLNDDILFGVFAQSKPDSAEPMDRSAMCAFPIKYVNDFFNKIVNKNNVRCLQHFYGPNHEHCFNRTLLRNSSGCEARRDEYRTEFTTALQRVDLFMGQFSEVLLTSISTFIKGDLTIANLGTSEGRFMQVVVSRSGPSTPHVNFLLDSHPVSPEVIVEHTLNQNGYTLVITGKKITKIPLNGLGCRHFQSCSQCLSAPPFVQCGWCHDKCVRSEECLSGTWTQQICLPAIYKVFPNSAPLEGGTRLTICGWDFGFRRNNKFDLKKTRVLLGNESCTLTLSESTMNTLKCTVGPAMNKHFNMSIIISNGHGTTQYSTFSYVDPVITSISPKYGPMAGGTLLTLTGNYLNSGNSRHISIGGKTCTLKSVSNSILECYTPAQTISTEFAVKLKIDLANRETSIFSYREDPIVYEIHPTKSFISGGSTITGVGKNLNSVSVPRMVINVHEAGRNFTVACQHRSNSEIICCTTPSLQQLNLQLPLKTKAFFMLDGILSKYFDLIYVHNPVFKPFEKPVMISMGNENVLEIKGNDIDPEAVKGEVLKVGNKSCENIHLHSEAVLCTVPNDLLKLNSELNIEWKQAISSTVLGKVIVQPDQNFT
Chain of c-Met protein receptors on HUVEC (P08581 25-1390): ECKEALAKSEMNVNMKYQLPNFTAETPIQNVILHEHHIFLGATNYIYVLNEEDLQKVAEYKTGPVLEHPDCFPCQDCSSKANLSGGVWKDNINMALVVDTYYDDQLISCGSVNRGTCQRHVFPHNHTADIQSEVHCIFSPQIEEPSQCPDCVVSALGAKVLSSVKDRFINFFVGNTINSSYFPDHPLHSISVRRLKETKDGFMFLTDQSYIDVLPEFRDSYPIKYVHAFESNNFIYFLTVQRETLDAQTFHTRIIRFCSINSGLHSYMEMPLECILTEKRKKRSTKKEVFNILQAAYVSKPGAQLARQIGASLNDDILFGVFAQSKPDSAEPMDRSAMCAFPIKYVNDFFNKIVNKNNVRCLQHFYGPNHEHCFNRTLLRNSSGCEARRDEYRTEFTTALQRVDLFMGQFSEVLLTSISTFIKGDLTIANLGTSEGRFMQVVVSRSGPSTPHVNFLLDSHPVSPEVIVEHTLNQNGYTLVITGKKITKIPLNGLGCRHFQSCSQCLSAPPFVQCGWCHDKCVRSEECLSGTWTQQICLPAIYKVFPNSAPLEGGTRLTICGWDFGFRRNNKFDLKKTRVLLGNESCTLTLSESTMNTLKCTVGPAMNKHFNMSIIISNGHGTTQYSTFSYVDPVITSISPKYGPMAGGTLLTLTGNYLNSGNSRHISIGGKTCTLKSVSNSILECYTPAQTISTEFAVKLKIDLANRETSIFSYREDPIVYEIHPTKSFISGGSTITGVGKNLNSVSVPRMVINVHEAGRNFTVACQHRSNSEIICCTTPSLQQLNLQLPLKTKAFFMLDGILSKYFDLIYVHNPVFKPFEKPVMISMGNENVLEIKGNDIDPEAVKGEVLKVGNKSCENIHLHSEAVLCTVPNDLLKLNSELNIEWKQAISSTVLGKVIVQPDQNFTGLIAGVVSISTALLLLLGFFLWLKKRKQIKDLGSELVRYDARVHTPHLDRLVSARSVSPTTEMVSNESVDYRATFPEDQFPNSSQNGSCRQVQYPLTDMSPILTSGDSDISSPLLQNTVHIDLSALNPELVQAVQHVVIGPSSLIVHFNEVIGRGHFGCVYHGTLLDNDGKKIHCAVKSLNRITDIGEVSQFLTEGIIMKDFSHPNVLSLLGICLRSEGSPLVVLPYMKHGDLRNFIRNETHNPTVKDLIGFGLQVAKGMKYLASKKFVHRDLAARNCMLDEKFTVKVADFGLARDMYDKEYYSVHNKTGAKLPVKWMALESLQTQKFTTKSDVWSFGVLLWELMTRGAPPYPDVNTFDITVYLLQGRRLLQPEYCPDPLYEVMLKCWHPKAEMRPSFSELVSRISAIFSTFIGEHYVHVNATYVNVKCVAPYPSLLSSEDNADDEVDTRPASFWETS

Binder	Index 1 (Relative Migration divided by the Average 157.5), HUVEC migration assay [1]	Index 2 (Relative Migration relative to VH0/Vk0), HUVEC migration assay [1]	Relative Migration (%), HUVEC migration assay, 90 ng/ml [1] [%]	Index 2 (binding affinity, inverse KD relative to VH0/Vk0) [2]	Index 1 (binding affinity, inverse KD relative to the Average 3.52) [3]	Kd [4] [nM]	Relative KD to VMDO2 VH0/Vk0 [4]
VH4/Vk2 (antibody, IgG1, V domains shown, Full IgG1/kappa expressed in HEK 293 EBNA cells) VH: QVQLVQSGAEVKKPGSSVKVSCQGSGYSFPTHWITWVRQAPGQGLEWMGTIDPTDSYNFYGPSFQGRVTITADSSTSTAYMELSSLRSEDTAMYYCARDGNYYDSRGYYYDTFDMWGQGTLVTVSS VL: DIQMTQSPSSLSASVGDRVTITCRASQGISTYLAWYQQKPGKAPKLLIYSASTLESGVPSRFSGSGSGTDFTLTISSLQPEDFATYYCQQADSFPLTFGGGTKVEIK	1.13	1.19	177	1.23	0.832	0.423	0.81
VH5/Vk4 (antibody, IgG1, V domains shown, Full IgG1/kappa expressed in HEK 293 EBNA cells) VH: QVQLVQSGAEVKKPGSSVKVSCQGSGYSFPTHWITWVRQAPGQGLEWMGTIDPTDSYNFYGPSFQGRVTITADSSTSTAYMELSSLRSEDTAVYYCARDGNYYDSRGYYYDTFDMWGQGTLVTVSS VL: EIQMTQSPGTLSLSPGERATLSCRASQGISTYLAWYQQKPGQAPRLLIYSASTLESGVPDRFSGSGSGTDFTLTISRLEPEDFATYYCQQADSFPLTFGGGTKVEIK						0.349	0.67
VH6/Vk5 (antibody, IgG1, V domains shown, Full IgG1/kappa expressed in HEK 293 EBNA cells) VH: QVQLVQSGAEVKKPGSSVKVSCKASGYSFPTHWITWVRQAPGQGLEWMGTIDPTDSYNFYGPSFQGRVTITADKSTSTAYMELSSLRSEDTAVYYCARDGNYYDSRGYYYDTFDMWGQGTLVTVSS VL: EIVLTQSPGTLSLSPGERATLSCRASQGISTYLAWYQQKPGQAPRLLIYSASTLESGIPDRFSGSGSGTDFTLTISRLEPEDFATYYCQQADSFPLTFGGGTKVEIK						0.557	1.07
VH5/Vk5 (antibody, IgG1, V domains shown, Full IgG1/kappa expressed in HEK 293 EBNA cells) VH: QVQLVQSGAEVKKPGSSVKVSCQGSGYSFPTHWITWVRQAPGQGLEWMGTIDPTDSYNFYGPSFQGRVTITADSSTSTAYMELSSLRSEDTAVYYCARDGNYYDSRGYYYDTFDMWGQGTLVTVSS VL: EIVLTQSPGTLSLSPGERATLSCRASQGISTYLAWYQQKPGQAPRLLIYSASTLESGIPDRFSGSGSGTDFTLTISRLEPEDFATYYCQQADSFPLTFGGGTKVEIK						0.506	0.97
VH3/Vk2 (antibody, IgG1, V domains shown, Full IgG1/kappa expressed in HEK 293 EBNA cells) VH: QVQLVQSGAEVKKPGSSVKVSCQGSGYSFPTHWITWVRQAPGQGLEWMGTIDPTDSYNFYGPSFQGRVTITADSSTSTAYLQWSSLKASDTAMYYCARDGNYYDSRGYYYDTFDMWGQGTLVTVSS VL: DIQMTQSPSSLSASVGDRVTITCRASQGISTYLAWYQQKPGKAPKLLIYSASTLESGVPSRFSGSGSGTDFTLTISSLQPEDFATYYCQQADSFPLTFGGGTKVEIK	1.04	1.09	164	1.09	0.738	0.477	0.92
VH6/Vk3 (antibody, IgG1, V domains shown, Full IgG1/kappa expressed in HEK 293 EBNA cells) VH: QVQLVQSGAEVKKPGSSVKVSCKASGYSFPTHWITWVRQAPGQGLEWMGTIDPTDSYNFYGPSFQGRVTITADKSTSTAYMELSSLRSEDTAVYYCARDGNYYDSRGYYYDTFDMWGQGTLVTVSS VL: DIQMTQSPGFLSLSPGERATLSCRASQGISTYLAWYQQKPGQAPRLLIYSASTLESGVPDRFSGSGSGTDFTLTISRLEPEDFATYYCQQADSFPLTFGGGTKVEIK						0.431	0.83
VH2/Vk5 (antibody, IgG1, V domains shown, Full IgG1/kappa expressed in HEK 293 EBNA cells) VH: EVQLVQSGAEVKKPGESLKISCKGSGYSFPTHWITWVRQMPGKGLEWMGTIDPTDSYNFYGPSFQGQVTISADKSISTAYLQWSSLKASDTAMYYCARDGNYYDSRGYYYDTFDMWGQGTLVTVSS VL: EIVLTQSPGTLSLSPGERATLSCRASQGISTYLAWYQQKPGQAPRLLIYSASTLESGIPDRFSGSGSGTDFTLTISRLEPEDFATYYCQQADSFPLTFGGGTKVEIK						0.685	1.32

Second part, the binder after the results:

Index 1 (Relative Migration divided by the Average 157.5), HUVEC migration assay [1]	Index 2 (Relative Migration relative to VH0/Vk0), HUVEC migration assay [1]	Relative Migration (%), HUVEC migration assay, 90 ng/ml [1] [%]	Index 2 (binding affinity, inverse KD relative to VH0/Vk0) [2]	Index 1 (binding affinity, inverse KD relative to the Average 3.52) [3]	Kd [4] [nM]	Relative KD to VMDO2 VH0/Vk0 [4]	Binder
					0.372	0.72	VH4/Vk4 (antibody, IgG1, V domains shown, Full IgG1/kappa expressed in HEK 293 EBNA cells) VH: QVQLVQSGAEVKKPGSSVKVSCQGSGYSFPTHWITWVRQAPGQGLEWMGTIDPTDSYNFYGPSFQGRVTITADSSTSTAYMELSSLRSEDTAMYYCARDGNYYDSRGYYYDTFDMWGQGTLVTVSS VL: EIQMTQSPGTLSLSPGERATLSCRASQGISTYLAWYQQKPGQAPRLLIYSASTLESGVPDRFSGSGSGTDFTLTISRLEPEDFATYYCQQADSFPLTFGGGTKVEIK
					0.391	0.75	VH6/Vk4 (antibody, IgG1, V domains shown, Full IgG1/kappa expressed in HEK 293 EBNA cells) VH: QVQLVQSGAEVKKPGSSVKVSCKASGYSFPTHWITWVRQAPGQGLEWMGTIDPTDSYNFYGPSFQGRVTITADKSTSTAYMELSSLRSEDTAVYYCARDGNYYDSRGYYYDTFDMWGQGTLVTVSS VL: EIQMTQSPGTLSLSPGERATLSCRASQGISTYLAWYQQKPGQAPRLLIYSASTLESGVPDRFSGSGSGTDFTLTISRLEPEDFATYYCQQADSFPLTFGGGTKVEIK
					0.402	0.77	VH5/Vk3 (antibody, IgG1, V domains shown, Full IgG1/kappa expressed in HEK 293 EBNA cells) VH: QVQLVQSGAEVKKPGSSVKVSCQGSGYSFPTHWITWVRQAPGQGLEWMGTIDPTDSYNFYGPSFQGRVTITADSSTSTAYMELSSLRSEDTAVYYCARDGNYYDSRGYYYDTFDMWGQGTLVTVSS VL: DIQMTQSPGFLSLSPGERATLSCRASQGISTYLAWYQQKPGQAPRLLIYSASTLESGVPDRFSGSGSGTDFTLTISRLEPEDFATYYCQQADSFPLTFGGGTKVEIK
0.813	0.855	128	1.48	1	0.352	0.68	VH5/Vk0 (antibody, IgG1, V domains shown, Full IgG1/kappa expressed in HEK 293 EBNA cells) VH: QVQLVQSGAEVKKPGSSVKVSCQGSGYSFPTHWITWVRQAPGQGLEWMGTIDPTDSYNFYGPSFQGRVTITADSSTSTAYMELSSLRSEDTAVYYCARDGNYYDSRGYYYDTFDMWGQGTLVTVSS VL: DIQMTQSPSFLSASVGDRVTITCRASQGISTYLAWYQQKPGTAPKLLIYSASTLESGVPSRFSGSGSGTDFTLTISSLQPEDSATYYCQQADSFPLTFGGGTKVEIK
					0.422	0.81	VH4/Vk3 (antibody, IgG1, V domains shown, Full IgG1/kappa expressed in HEK 293 EBNA cells) VH: QVQLVQSGAEVKKPGSSVKVSCQGSGYSFPTHWITWVRQAPGQGLEWMGTIDPTDSYNFYGPSFQGRVTITADSSTSTAYMELSSLRSEDTAMYYCARDGNYYDSRGYYYDTFDMWGQGTLVTVSS VL: DIQMTQSPGFLSLSPGERATLSCRASQGISTYLAWYQQKPGQAPRLLIYSASTLESGVPDRFSGSGSGTDFTLTISRLEPEDFATYYCQQADSFPLTFGGGTKVEIK
1.12	1.18	176	1.24	0.838	0.42	0.81	VH5/Vk2 (antibody, IgG1, V domains shown, Full IgG1/kappa expressed in HEK 293 EBNA cells) VH: QVQLVQSGAEVKKPGSSVKVSCQGSGYSFPTHWITWVRQAPGQGLEWMGTIDPTDSYNFYGPSFQGRVTITADSSTSTAYMELSSLRSEDTAVYYCARDGNYYDSRGYYYDTFDMWGQGTLVTVSS VL: DIQMTQSPSSLSASVGDRVTITCRASQGISTYLAWYQQKPGKAPKLLIYSASTLESGVPSRFSGSGSGTDFTLTISSLQPEDFATYYCQQADSFPLTFGGGTKVEIK
0.773	0.812	122	1.32	0.891	0.395	0.76	VH4/Vk0 (antibody, IgG1, V domains shown, Full IgG1/kappa expressed in HEK 293 EBNA cells) VH: QVQLVQSGAEVKKPGSSVKVSCQGSGYSFPTHWITWVRQAPGQGLEWMGTIDPTDSYNFYGPSFQGRVTITADSSTSTAYMELSSLRSEDTAMYYCARDGNYYDSRGYYYDTFDMWGQGTLVTVSS VL: DIQMTQSPSFLSASVGDRVTITCRASQGISTYLAWYQQKPGTAPKLLIYSASTLESGVPSRFSGSGSGTDFTLTISSLQPEDSATYYCQQADSFPLTFGGGTKVEIK

Source: patent US20210403576A1 (HELIXMITH, published 2021)
